# Experimental data: patent US7803750
# Biological target: tyrosinase protein of murine B16 melanoma tumors and melan-A murine melanocytes (murine) (UniProt P11344)
# Assay: cell-based or functional assay
# Sequence of UniProt P11344 (P11344 19-533 limits assumed): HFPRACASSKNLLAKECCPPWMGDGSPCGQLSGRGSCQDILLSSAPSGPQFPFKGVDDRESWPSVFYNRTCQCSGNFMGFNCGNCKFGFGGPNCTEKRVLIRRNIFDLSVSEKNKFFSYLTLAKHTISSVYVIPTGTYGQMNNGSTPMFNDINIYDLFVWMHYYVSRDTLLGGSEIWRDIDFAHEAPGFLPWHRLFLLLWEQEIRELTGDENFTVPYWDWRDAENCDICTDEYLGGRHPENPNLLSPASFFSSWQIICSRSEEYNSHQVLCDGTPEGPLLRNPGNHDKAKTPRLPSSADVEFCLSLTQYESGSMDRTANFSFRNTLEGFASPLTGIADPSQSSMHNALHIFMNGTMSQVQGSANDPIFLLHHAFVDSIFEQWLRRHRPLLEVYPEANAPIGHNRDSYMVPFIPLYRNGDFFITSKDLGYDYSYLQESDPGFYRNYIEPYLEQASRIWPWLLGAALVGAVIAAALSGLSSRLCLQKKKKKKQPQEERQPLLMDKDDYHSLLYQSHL
substance,measurement,value
epitope-tagged recombinant human (rh) ZAG (zinc alpha-2-glycoprotein) with myc and 6-His 3' epitope tags (from UniProt P25311 21-298),decrease in color development with L-DOPA (tyrosinase activity in frozen sections of B16-V tumors),25 to 50%
